According to the nanobody polyreactivity screen of Harvey et al. (2022):

Test: yeast display, Sf9 membrane polyspecificity reagent, FACS + sequencing; frameworks hold sequencing errors
Method in brief: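 Galactose induction of a Saccharomyces cerevisiae BJ5465 synthetic nanobody display library ran 36–48 hours. The cells were then stained for 1 hour at 4 °C with 10% biotinylated, detergent-solubilized Sf9 membrane reagent, pulled down on streptavidin microbeads and FACS-sorted into low and high (top ~1%) gates on expression and reagent-binding fluorescence. Labels for polyreactivity follow the gate of origin.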

Question: Which “polyreactivity (PSR sort gate)” value does the source give for “QVQLVESGGGLVQAGGSLSLSCAASGRLFKIDAMGWYRQAPGKERELVATISSGGRTNYADSVKGRFTISRDNAKNSVYLQMNSLKPEVTAVYYCNAGARVLYETESFDYWGQGIQVTVSS” here?
Answer: Its value is “low polyreactivity”.

Question: For “QVQLVESGGGLVQAGGSLSLSCAASGRTFAPYAMGWYRQAPGKEREFVAGITWSSSSTYADSVKGRFTISRDNAKITVYFQMNSLKPEDPAVYYCAASHAKGGNRHYYWGQGTQVTVSS”, which “polyreactivity (PSR sort gate)” value is on record?
Answer: Its value is “high polyreactivity”.

Question: With “QVQLVESGGGLVQAGGSLSLSCAASGRTFVPYAMGWYRQAPGKERELVADITDGDGSTYADSVKGRFTISRDNAKNTVYLQMNSLKPEYTAVYYCAAQSRRLVTRWPVTFGYWGQGTQVTVSS” as the sequence, how does the “polyreactivity (PSR sort gate)” value read?
Answer: Its value is “low polyreactivity”.

Question: Which “polyreactivity (PSR sort gate)” value does the source give for “QVQLVESGGGLVQAGGSLSLSCAASGRTFWYKDMGWYRQAPGKERELVAVISSGAITFYADSVKGRFTISRDNAKNTVYLQMNSLNPEDTAVYYCAARSYLSLIDYWGQGTLVTVSS” here?
Answer: Its value is “high polyreactivity”.

Question: With “QVQLVESGGGLVQAGGSLSLSCAASGSIFRGNAMGWYRQAPGKERELVAANSYSSGTTYYADSVKGRFTISRDNAKNTVYFQMNSLKPEDTAVYYCATRYYRGYVRGTHHVGGYYYRGQGTQVTVSS” as the sequence, how does the “polyreactivity (PSR sort gate)” value read?
Answer: Its value is “low polyreactivity”.

Question: For “QVQLVESGGGLVQAGGSLSLSCAASGSIFRSYAMGWYRQAPGKERELVAAITNGGSTYYADSVKGRFTISRDNAKNTVYLQMNSLKPEDTAVYYCAAARYTYWFYLVKKTGYYWGQGTQVTVSS”, which “polyreactivity (PSR sort gate)” value is on record?
Answer: Its value is “high polyreactivity”.

Question: With “QVQLVESGGGLVQAGGSLSLSCAASGSIFSYYDMGWYIQAPGKERELVAGISRGGSTNYADSVKGRFTISRDNAKNTVYLQMNSLKPEDPAVYYCNADYIFWLTLFDYWGQGTQVTVSS” as the sequence, how does the “polyreactivity (PSR sort gate)” value read?
Answer: The value was “low polyreactivity”.

Question: For “QVQLVESGGGLVQAGGSLSLSCAASGSILGYYAMGWYRQAPGKERELVAAISGRGGSTYYADSVKGRFTISRDNAKNPVYLQMNSLKPEDTAVYYCAKRSVWRGWGQGTQVTVSS”, which “polyreactivity (PSR sort gate)” value is on record?
Answer: The value was “high polyreactivity”.

Question: Which “polyreactivity (PSR sort gate)” value does the source give for “QVQLVESGGGLVQAGGSLSLSCAASGSILYFNAMGWYRQAPGKERELVAAISRSGGSTYYADSVKGRFTISRDNAKNTVYIQMNSLKPEDTAVYSCAASYTVYYWGQGTQVTVTS” here?
Answer: The value was “high polyreactivity”.

Question: For “QVQLVESGGGLVQAGGSLSLSCAASGSISYRYAMGWYRQAPGKERELVAAITSGGRTYYADSVKGRFTISRDNAKYTVYLQMNSLKPEDTAVYYCAKSKPVGPYYYWGQGTQVTVSS”, which “polyreactivity (PSR sort gate)” value is on record?
Answer: Its value is “high polyreactivity”.

Question: For “QVQLVESGGGLVQAGGSLSLSCAASGSLFRPNAMGWYRQAPGKERELVAAITWSGDSTYYADSVKGRFTISRDNAKNTVYLQMNSLKPEATAVYYCAADFTYQGSSANDYWGQGTQVTVSS”, which “polyreactivity (PSR sort gate)” value is on record?
Answer: Its value is “low polyreactivity”.

Question: For “QVQLVESGGGLVQAGGSLSLSCAASGSNFNVYVMGWYRQAPGKERELVAAITYRGASTYYADSVKGRFTFSRDNAKNTVYLQMNSLKPEDTAVYYCAARYGYRSVYRSYNSRPYDYWGQGTQVTVSS”, which “polyreactivity (PSR sort gate)” value is on record?
Answer: The value was “high polyreactivity”.

Question: Which “polyreactivity (PSR sort gate)” value does the source give for “QVQLVESGGGLVQAGGSLSLSCAASGSTFAYYAMGGYRQAPGKERELVAGITWTGGSTYYADSVKGRFTISRDNAKNTVYLQMNSLKPEDTAVYYCAVTYPYGYEYDHWGQGTQVTVSS” here?
Answer: Its value is “low polyreactivity”.

Question: Which “polyreactivity (PSR sort gate)” value does the source give for “QVQLVESGGGLVQAGGSLSLSCAASGSTFTEYAMGWDRQAPGKERELVAGISSDGSTKYADSVKGRFTISRDNAMNTVYLQMNSLKTEDTAVYYCYIVQSYAKYDYWGQGTQVTVSS” here?
Answer: The value was “low polyreactivity”.

Question: Which “polyreactivity (PSR sort gate)” value does the source give for “QVQLVESGGGLVQAGGSLSLSCAASGSTFTYYDMGWYRQAPGKERELVAAISSSGGRTYYSDSVKGRFTISRDNAKNTVYLQMNSLKPEDTAVYYCARVVRPTDGDYWGQGTQVTVSS” here?
Answer: The value was “high polyreactivity”.

Question: With “QVQLVESGGGLVQAGGSLSLSCAASGSTFVPYAMGWYRQAPGKERELVAAISSTGGSTYYADSVKGRFTISRDNAKNTVYLQMNSLKAEDTAVYYCNALAKIRYGQINKGYYWGQGTQVTVSS” as the sequence, how does the “polyreactivity (PSR sort gate)” value read?
Answer: The value was “high polyreactivity”.

Question: For “QVQLVESGGGLVQAGGSLSLSCAASGYIFLVYAMGWYRQAPGKERELVASITRGGGTTYYADSVKGRFTISRDNAKNTVYLLMNSLKREDTAVYYCAADLYSRGHRWYGYWGQGTQVTVSS”, which “polyreactivity (PSR sort gate)” value is on record?
Answer: Its value is “high polyreactivity”.

Question: Which “polyreactivity (PSR sort gate)” value does the source give for “QVQLVESGGGLVQAGGSLSLSCAASGYTLYANAMGWYRQAPGKERELVAAIRSGGSTNYADSVKGRFTISRDNAKNTVYLQMNSMKPEDTAVYYCAKDPYQDFLYLRYYGYYYWGQGTQVTVSS” here?
Answer: Its value is “low polyreactivity”.

Question: Which “polyreactivity (PSR sort gate)” value does the source give for “QVQLVESGGGLVQAGGSLSLSCPASGRTFSTNAMGWYRQAPGKEREMVAAISARGGSTYYADSVKGRFTISRDNAKNTVYLQMNSLKPEDTAVEYCALRPGRYSYAFDFWGQGTQVTVSS” here?
Answer: Its value is “high polyreactivity”.

Question: Which “polyreactivity (PSR sort gate)” value does the source give for “QVQLVESGGGLVQAGGSLSLSSAASGRPFIRNAMGWSRQAAGKERELVAGINSGGITNYADSVKGRFTISRDNAKNTVYLQMNSLKPVDTAFYYCNARQVLYGLYLRAYPYEYWGQGTQVTVSS” here?
Answer: Its value is “low polyreactivity”.

Question: With “QVQLVESGGGLVQAGGSLSLSSAASGRTFGIYAMGWYRQEPGKERELVAAITWSGDSTYYADSVKGRFTISRDNAKNTVYLQLNSLKPEDTAVDYCAADYVGVTYVRYDYWGQGTQVTVSS” as the sequence, how does the “polyreactivity (PSR sort gate)” value read?
Answer: Its value is “low polyreactivity”.

Question: For “QVQLVESGGGLVQAGGSLSLSSAASGSIFVGNAIAWYRQAPGKERELVATISWSCGSTYYADSVKGRFTISRDYAKNNVYLQMNSRKPEDTAVYYCAAEFGGYDPYDYWGQGTQVTVSS”, which “polyreactivity (PSR sort gate)” value is on record?
Answer: The value was “low polyreactivity”.

Question: For “QVQLVESGGGLVQAGGSLSLSSDASGSPLFSDAMGWYRQAPGKEREFVAAISRRGRSTYYADSVKGRFTISRDNAKNSVYFQMNSLIPEDTAVYYCAARDSSYNWYGYWGQGTQVTVSS”, which “polyreactivity (PSR sort gate)” value is on record?
Answer: Its value is “high polyreactivity”.

Question: Which “polyreactivity (PSR sort gate)” value does the source give for “QVQLVESGGGLVQAGGSLSLTCAASGIIFSYNAMGWYRQATGKERELVAAISWSGGSTYYADSVKGRFTISRDNAKNTVYLQMNSLKPEDTAVYYCNAPYLIRFKRLGDNWGQGTQVTVSS” here?
Answer: Its value is “high polyreactivity”.

Question: With “QVQLVESGGGLVQAGGSLSLTCAASGRTFESNAMGWYRQAPGKERELVAVITSGGITNYTDSVKGRFTISRDNAKNTVYLQLNSLKPVDTAVYYCEFYYWGQGTQVTVSS” as the sequence, how does the “polyreactivity (PSR sort gate)” value read?
Answer: Its value is “low polyreactivity”.

Question: For “QVQLVESGGGLVQAGGSLSLTCAASGSSFWPYAMGWYRQAPGKELELVAASTTRDGSTYYADSVKGRFTISRDNAKNTVYLQMISLKTEDTAVYYSAAVVLRDGWWGYYYWGQGTQVTVSS”, which “polyreactivity (PSR sort gate)” value is on record?
Answer: Its value is “high polyreactivity”.

Question: Which “polyreactivity (PSR sort gate)” value does the source give for “QVQLVESGGGLVQAGGSLSLTWAASGSTFSYYVMGWYRQAPGKETELVAGITRGGRTYYADSENGRFTISRDNAKNSVFLQMNSLKPEDTAVYYCAKDQGGVLELDYWGQGTQVTVSS” here?
Answer: The value was “low polyreactivity”.

Question: Which “polyreactivity (PSR sort gate)” value does the source give for “QVQLVESGGGLVQAGGSPRLSCAASGFTFGHYAMGWYREAPGKERELVAAISIDGGRTYYADSVKGRFTISRDNAKNSVYLQMNSLKPEDTAVYYCAVPRWFYYYWGQGTQVTVSS” here?
Answer: Its value is “high polyreactivity”.

Question: Which “polyreactivity (PSR sort gate)” value does the source give for “QVQLVESGGGLVQAGGSQRLSCAASGSIFLRYAMGWYRQAPGKERELVAAITSSGGSTYYADSVKGRFTISRDNAKNTVYLQMTSLKPEDTAVYYCNRYSYLFPYYWKYDYWGQGTQVTVSS” here?
Answer: The value was “high polyreactivity”.

Question: With “QVQLVESGGGLVQAGGSRLSCAASGLIFISYTMGWYRPAPGKERELVAAIDSSGGNTYYADSVKGRFTISRDNAKNTVYLQMNSLKPEDTAVYYCAKDVGHGAGNLMGYWGQGTQVTVSS” as the sequence, how does the “polyreactivity (PSR sort gate)” value read?
Answer: Its value is “low polyreactivity”.

Question: For “QVQLVESGGGLVQAGGSRRLICAASGITFFAYTLGWYRQAPGKERELVASITGSSGGTYYADSVKGRFTISRDNAKNTVYLQMNSLKPEDTAVYYCATAYGRKLLLRGFYDQSHDMDYWGQGTQVTVSS”, which “polyreactivity (PSR sort gate)” value is on record?
Answer: Its value is “low polyreactivity”.

Question: With “QVQLVESGGGLVQAGGSRRLSCAASGGTFPFNAMGWYSPAPGKERELVAAITFTTSSTYYADSVKGRFTMSRDNAKNTVYLQMTSLKPEDTAVDYCAVDYGWYSAYYRESDYWGQGTQVTVSS” as the sequence, how does the “polyreactivity (PSR sort gate)” value read?
Answer: The value was “low polyreactivity”.

Question: Which “polyreactivity (PSR sort gate)” value does the source give for “QVQLVESGGGLVQAGGSRRLSCAASGLICLLYDMGWYREAPGKERELVAAISTGGSTDYADSVKGRFTISRDNAKNTVYLPLNSLKPEDTAVYYCAADYYLYYLDGEDYWVQGTQVTVSS” here?
Answer: Its value is “high polyreactivity”.

Question: Which “polyreactivity (PSR sort gate)” value does the source give for “QVQLVESGGGLVQAGGSRRLSCAASGLIYWYAMGWYRQAPGKERELVAAISSNGGSTYYADSVKGRFTISRDNAKNTVYLQMNSLKPEDTAVYYCAVTSFGYSVLERDYWGQGTQVTVSS” here?
Answer: The value was “low polyreactivity”.

Question: With “QVQLVESGGGLVQAGGSRRLSCAASGNTFYANVMGWYRQAPGKERELVASITWSGGSTYYADSVKGRFTISRDNAKNTVYLQMNSLKPEDTAVYYCATSGDRLVWGQGTQVTVSS” as the sequence, how does the “polyreactivity (PSR sort gate)” value read?
Answer: The value was “low polyreactivity”.

Question: With “QVQLVESGGGLVQAGGSRRLSCAASGRIFDTYTMGWYRQAPGKERELVAAITTGGSTYYADSVKGRFTISRDNAMNTVYLQMNSLKPEDTAVYYCAARYRSIIRYYYWGQGTQVTVSS” as the sequence, how does the “polyreactivity (PSR sort gate)” value read?
Answer: Its value is “high polyreactivity”.

Question: Which “polyreactivity (PSR sort gate)” value does the source give for “QVQLVESGGGLVQAGGSRRLSCAASGRIFTTYAMGWYRQAPGKERELVAAITRNGGRTYYADSVKGRFTLSRDNAKNTVYVPMHSLKPEDTAVYYCAAVYRSFGKVYGMDYWGQGTQVTVSS” here?
Answer: The value was “high polyreactivity”.

Question: For “QVQLVESGGGLVQAGGSRRLSCAASGRTFEGNAMGWYRPAPGKERELVAAISTSGGRTYYADSVKGRFTISRDNAKNTVYLQLNSLIPEDTAVYDCNTDQYSPYEYSSFDSWGQCTQVTVSS”, which “polyreactivity (PSR sort gate)” value is on record?
Answer: The value was “low polyreactivity”.

Question: Which “polyreactivity (PSR sort gate)” value does the source give for “QVQLVESGGGLVQAGGSRRLSCAASGRTFPYNAMGWYRQATGKERELVATNDSSGTRTFYADSVKGRFTISRDNAKNTVYLQLNRLKPEDNAVYYCAAGIIYSNETNITSYDYWGQGTQVTVSS” here?
Answer: Its value is “low polyreactivity”.

Question: For “QVQLVESGGGLVQAGGSRRLSCAASGRVFFNNAMGWYRQAPGKDREWVAGITSGSSTNYADSVKGRFTISRDNAKNTVYLQMNSLKPEYTAVDYCNKAPSWWDVRVPFDYWGQGTQVTVSS”, which “polyreactivity (PSR sort gate)” value is on record?
Answer: Its value is “low polyreactivity”.

Question: For “QVQLVESGGGLVQAGGSRRLSCAASGSTFRGNAMGWYRQAPGKERELVAAITWSGDDTYYADSVKGRFTISRDNAKNTVYLQMNSLKPEDTAVYYCAADLAAFTLAVAYTYDYWGQGTQVTVSS”, which “polyreactivity (PSR sort gate)” value is on record?
Answer: Its value is “low polyreactivity”.
